Experimental data: patent US20230220034A1, “METHOD FOR IMPROVING SOLUBILITY OF PROTEIN AND PEPTIDE BY USING IMMUNOGLOGULIN FC FRAGMENT LINKAGE” (HANMI PHARM. CO., LTD., priority 2014, published 2023)
Where two headings read alike, the source gives them in different places. Square brackets hold non-standard residues; d marks the D form. Ends that are not written are not given here. Aib = CC(C)(N)C(=O)O

What was measured:
[1] = pH 5.6
[2] = Test of solubility of insulin and long-acting insulin conjugate (RP-HPLC against calibration standard curve); type: physicochemical; conditions: for Measurement value (quantitative value calculated by standard calibration curve): pH 6.0 acetic acid buffer, polysorbate, mannitol, sodium chloride, room temperature, supernatant
Description: A respective calibration standard curve of insulin and the long-acting insulin conjugate was first confirmed by Reverse Phase-High Performance Liquid Chromatography (RP-HPLC), as in FIG. 1.

Oxyntomodulin derivative: oxyntomodulin derivative having the amino acid sequence of SEQ ID NO: 27, cysteine residue at position 30 (H[Aib]QGTFTSDYSKYLDEKRAKEFVQWLMNTC)
difference between the theoretical value and the measurement value [1]: up to 27 times | solubility [1]: 0.188 mg/mL | point at which completely dissolved without impurities or pellet (minimum quantitative value) ([1]; serial dilution of test material from about 5 mg/mL): 0.008 mg/mL

Insulin
solubility ([2]; FIG. 2, composition of Table 1, pH 6.0): 0.628 mg/mL | difference between the theoretical value and the measurement value ([2]; dissolved in long-acting insulin conjugate formulation buffer, pH 6.0): up to 16 times | pellets after centrifugation ([2]; long-acting insulin conjugate formulation buffer, all cases, excluding 0.008 mg/mL): pellets were observed | point at which completely dissolved without impurities or pellet (minimum quantitative value) ([2]; serial dilution of test material from about 10 mg/mL, pH 6.0): 0.008 mg/mL | Measurement value (quantitative value calculated by standard calibration curve) ([2]; theoretical quantitative value 0.008 mg/mL): 0.000 mg/mL | Measurement value (quantitative value calculated by standard calibration curve) ([2]; theoretical quantitative value 0.04 mg/mL): 0.000 mg/mL | Measurement value (quantitative value calculated by standard calibration curve) ([2]; theoretical quantitative value 0.2 mg/mL): 0.005 mg/mL | Measurement value (quantitative value calculated by standard calibration curve) ([2]; theoretical quantitative value 1 mg/mL): 0.047 mg/mL | Measurement value (quantitative value calculated by standard calibration curve) ([2]; theoretical quantitative value 5 mg/mL): 0.253 mg/mL | Measurement value (quantitative value calculated by standard calibration curve) ([2]; theoretical quantitative value 10 mg/mL): 0.628 mg/mL
